{
  "source": "paper PMC5928098",
  "about": "“Association of BrERF72 with methyl jasmonate-induced leaf senescence of Chinese flowering cabbage through activating JA biosynthesis-related genes”",
  "binders": {"B1": {"name": "BrOPR3 promoter probe (dsDNA)", "DNA 1": "CCTGAACCAATCATAGCCTGGCGGCTAAGTCTTACAGTTGA", "DNA 2": "TCAACTGTAAGACTTAGCCGCCAGGCTATGATTGGTTCAGG"}, "B2": {"name": "DRE/CRT probe (dsDNA)", "DNA 1": "ATTTCATGGCCGACCTGCTTTCATGGCCGACCTGCTTT", "DNA 2": "AAAGCAGGTCGGCCATGAAAGCAGGTCGGCCATGAAAT"}, "B3": {"name": "GCC-box probe (dsDNA)", "DNA 1": "CATAAGAGCCGCCACTCATAAGAGCCGCCACT", "DNA 2": "AGTGGCGGCTCTTATGAGTGGCGGCTCTTATG"}, "B4": {"name": "mBrOPR3 promoter probe (dsDNA)", "DNA 1": "CCTGAACCAATCATAGCCTAAAAAATAAGTCTTACAGTTGA", "DNA 2": "TCAACTGTAAGACTTATTTTTTAGGCTATGATTGGTTCAGG"}, "B5": {"name": "BrAOC3 promoter probe (dsDNA)", "DNA 1": "ATGTCTTCACTAAAAACACTATACCGACCAGAGTTTTGTAGACATAAATTACGAA", "DNA 2": "TTCGTAATTTATGTCTACAAAACTCTGGTCGGTATAGTGTTTTTAGTGAAGACAT"}, "B6": {"name": "mBrAOC3 promoter probe (dsDNA)", "DNA 1": "B5 DNA 1 with C24A, C25A, G26A, C28A", "DNA 2": "B5 DNA 2 with G28T, C30T, G31T, G32T"}, "B7": {"name": "BrLOX4 promoter probe (dsDNA)", "DNA 1": "ACATGTTATATCCGCGCGAAGCGCGGACACCGACTCTAGTTATCAGTAAAAATAAATG", "DNA 2": "CATTTATTTTTACTGATAACTAGAGTCGGTGTCCGCGCTTCGCGCGGATATAACATGT"}, "B8": {"name": "mBrLOX4 promoter probe (dsDNA)", "DNA 1": "B7 DNA 1 with C30A, C31A, G32A, C34A", "DNA 2": "B7 DNA 2 with G25T, C27T, G28T, G29T"}},
  "key": {"[1]": {"target": "T1, GST-BrERF72 (Brassica (Chinese flowering cabbage), UniProt M4CBR0 1-245)", "T1 sequence (M4CBR0 entry or part of it)": "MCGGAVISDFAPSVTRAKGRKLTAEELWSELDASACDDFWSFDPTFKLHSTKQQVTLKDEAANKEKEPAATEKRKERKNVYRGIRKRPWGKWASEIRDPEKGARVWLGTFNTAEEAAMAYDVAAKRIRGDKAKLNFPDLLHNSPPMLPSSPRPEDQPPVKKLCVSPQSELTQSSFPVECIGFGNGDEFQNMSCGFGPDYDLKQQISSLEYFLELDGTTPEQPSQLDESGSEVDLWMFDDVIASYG", "test": "EMSA; LightShift Chemiluminescent EMSA kit, 6% native PAGE; buffer, salt, pH and temperature not stated", "details": "protein: recombinant, tags: N-terminal GST (pGEX-4T-1), label: 5' biotin"}, "[2]": {"target": "T1, GST-BrERF72", "test": "competition; unlabeled mutant vs labeled BrOPR3 probe; LightShift Chemiluminescent EMSA kit, 6% native PAGE; buffer, salt, pH and temperature not stated", "details": "protein: recombinant; tags: N-terminal GST (pGEX-4T-1); blunt"}, "[3]": {"target": "T1, GST-BrERF72", "test": "competition; unlabeled mutant vs labeled BrAOC3 probe; LightShift Chemiluminescent EMSA kit, 6% native PAGE; buffer, salt, pH and temperature not stated", "details": "protein: recombinant; tags: N-terminal GST (pGEX-4T-1); blunt"}, "[4]": {"target": "T1, GST-BrERF72", "test": "competition; unlabeled mutant vs labeled BrLOX4 probe; LightShift Chemiluminescent EMSA kit, 6% native PAGE; buffer, salt, pH and temperature not stated", "details": "protein: recombinant; tags: N-terminal GST (pGEX-4T-1); blunt"}},
  "note": "Changes are numbered by the printed parent chain.",
  "data": [
    {"binder": "B1", "values": [
      {"measurement": "binding result", "setting": "[1]; blunt", "result": "binds"}
    ]},
    {"binder": "B2", "values": [
      {"measurement": "binding result", "setting": "[1]", "result": "binds"}
    ]},
    {"binder": "B3", "values": [
      {"measurement": "binding result", "setting": "[1]", "result": "binds"}
    ]},
    {"binder": "B4", "values": [
      {"measurement": "binding result", "setting": "[2]", "result": "no binding"}
    ]},
    {"binder": "B5", "values": [
      {"measurement": "binding result", "setting": "[1]; blunt", "result": "binds"}
    ]},
    {"binder": "B6", "values": [
      {"measurement": "binding result", "setting": "[3]", "result": "no binding"}
    ]},
    {"binder": "B7", "values": [
      {"measurement": "binding result", "setting": "[1]; blunt", "result": "binds"}
    ]},
    {"binder": "B8", "values": [
      {"measurement": "binding result", "setting": "[4]", "result": "no binding"}
    ]}
  ]
}
